Data on 3 molecules can be found in patent US9951306B2, “Catalase in growth media” (EUCODIS BIOSCIENCE GMBH, priority 2012, dated 2018).

The conditions of assay [1]: 8000 international units of catalase per plate; cited from earlier work.
For assay [2], the system named is Bacillus subtilis ATCC 6633. In words: Agar diffusion test: inhibition by hydrogen peroxide on TSA-LT agar plates with additives. The assay is classed as cell-based. The note with it: 10 μl on paper disc; for Inhibition on gamma-irradiated agar plates: gamma-irradiated 20.5 kGy; for Inhibition on agar plates: not irradiated.
In assay [3] the test system is Bacillus subtilis ATCC 6633. In words: Growth promotion test: colonies on TSA-LT agar plates treated with hydrogen peroxide. The assay is classed as cell-based. The note with it: for Colonies on agar: no catalase, hydrogen peroxide as in Example 3; for Colonies on gamma-irradiated agar / Colonies on agar plates: 300 μl 1% hydrogen peroxide (100 ppm in medium); for Colonies on gamma-irradiated agar: gamma-irradiated 20.5 kGy; for Colonies on agar plates: not irradiated.

Where [4] appears, read: sodium pyruvate 2.00 g/l together with sodium thiosulfate 0.05 g/l, 2% hydrogen peroxide.
The mark [5] stands for this setting: sodium pyruvate 2.00 g/l together with sodium thiosulfate 0.05 g/l, 5% hydrogen peroxide.
The mark [6] stands for this setting: sodium pyruvate 2.00 g/l together with sodium thiosulfate 0.05 g/l, 8% hydrogen peroxide.
Where [7] appears, read: sodium pyruvate 2.00 g/l together with sodium thiosulfate 0.05 g/l, 10% hydrogen peroxide.
Where [8] appears, read: sodium pyruvate 2.00 g/l together with sodium thiosulfate 0.05 g/l.
[9] abbreviates: 80 U/plate, 2% hydrogen peroxide.
The mark [10] stands for this setting: 80 U/plate, 5% hydrogen peroxide.
Where [11] appears, read: 80 U/plate, 8% hydrogen peroxide.
The mark [12] stands for this setting: 80 U/plate, 10% hydrogen peroxide.
Where [13] appears, read: 150 U/plate, 2% hydrogen peroxide.
[14] abbreviates: 150 U/plate, 5% hydrogen peroxide.
[15] abbreviates: 150 U/plate, 8% hydrogen peroxide.
Where [16] appears, read: 150 U/plate, 10% hydrogen peroxide.
Where [17] appears, read: 300 U/plate, 2% hydrogen peroxide.
Where [18] appears, read: 300 U/plate, 5% hydrogen peroxide.
Where [19] appears, read: 300 U/plate, 8% hydrogen peroxide.
Where [20] appears, read: 300 U/plate, 10% hydrogen peroxide.

With catalase, in assay [1], the recovery is listed as 60%.
As for `CC(=O)C(=O)[O-].[Na+]` [Sodium pyruvate, reference compound], the “Inhibition on gamma-irradiated agar plates” value in assay [2] (setting [4]) is 0 mm; in assay [2] (setting [5]) it was 1 mm; in assay [2] (setting [6]), 2 mm; in assay [2] (setting [7]), 3 mm. In addition, the “Inhibition on agar plates” value in assay [2] (setting [4]) is 0 mm; in assay [2] (setting [5]), 1 mm; in assay [2] (setting [6]) it was 2 mm; in assay [2] (setting [7]) it was 2.5 mm. The “growth in agar plates with hydrogen peroxide” value in assay [3] (0.2 g/l sodium pyruvate and 0.005 g/l sodium thiosulfate without catalase) is “did not support growth”. For the same molecule, the Colonies on agar in assay [3] (sodium pyruvate 0.20 g/l with sodium thiosulfate 0.005 g/l) is reported as 0 CFU; in assay [3] (sodium pyruvate 2.00 g/l with sodium thiosulfate 0.05 g/l) it was 125 CFU. In addition, in assay [3] (setting [8]), the “Colonies on gamma-irradiated agar” value is 229 CFU. The “Colonies on agar plates” value in assay [3] (setting [8]) was 161 CFU.

B1: Catalase from bovine liver: Catalase prepared from commercial product C9322 (Sigma), dissolved in 0.1 M potassium phosphate pH 7.0; comparator (protein, UniProt P00432 2-527, looked up)
Catalase: ADNRDPASDQMKHWKEQRAAQKPDVLTTGGGNPVGDKLNSLTVGPRGPLLVQDVVFTDEMAHFDRERIPERVVHAKGAGAFGYFEVTHDITRYSKAKVFEHIGKRTPIAVRFSTVAGESGSADTVRDPRGFAVKFYTEDGNWDLVGNNTPIFFIRDALLFPSFIHSQKRNPQTHLKDPDMVWDFWSLRPESLHQVSFLFSDRGIPDGHRHMNGYGSHTFKLVNANGEAVYCKFHYKTDQGIKNLSVEDAARLAHEDPDYGLRDLFNAIATGNYPSWTLYIQVMTFSEAEIFPFNPFDLTKVWPHGDYPLIPVGKLVLNRNPVNYFAEVEQLAFDPSNMPPGIEPSPDKMLQGRLFAYPDTHRHRLGPNYLQIPVNCPYRARVANYQRDGPMCMMDNQGGAPNYYPNSFSAPEHQPSALEHRTHFSGDVQRFNSANDDNVTQVRTFYLKVLNEEQRKRLCENIAGHLKDAQLFIQKKAVKNFSDVHPEYGSRIQALLDKYNEEKPKNAVHTYVQHGSHLSAREKANL
In the case of B1, the “Inhibition on gamma-irradiated agar plates” value in assay [2] (setting [9]) was found to be 3.5 mm; in assay [2] (setting [10]) it was 7 mm; in assay [2] (setting [11]) it was 8 mm; in assay [2] (setting [12]), 8.5 mm; in assay [2] (setting [13]) it was 2 mm; in assay [2] (setting [14]) it was 6 mm. In addition, the “Inhibition on gamma-irradiated agar plates” value in assay [2] (setting [15]) was found to be 7.5 mm; in assay [2] (setting [16]), 8 mm; in assay [2] (setting [17]), 1.5 mm; in assay [2] (setting [18]) it was 5.5 mm; in assay [2] (setting [19]), 6.5 mm; in assay [2] (setting [20]), 7.5 mm. Moreover, the “Inhibition on agar plates” value in assay [2] (setting [9]) is listed as 1 mm; in assay [2] (setting [10]) it was 5 mm; in assay [2] (setting [11]) it was 6 mm; in assay [2] (setting [12]), 7 mm; in assay [2] (setting [13]), 0.5 mm; in assay [2] (setting [14]), 4 mm. Besides, the “Inhibition on agar plates” value is 5 mm in assay [2] (setting [15]); 6 mm in assay [2] (setting [16]); 0 mm in assay [2] (setting [17]); 2 mm in assay [2] (setting [18]); 4 mm in assay [2] (setting [19]); 4.5 mm in assay [2] (setting [20]). The “Colonies on gamma-irradiated agar” value in assay [3] (80 U/plate), in assay [3] (150 U/plate) and in assay [3] (300 U/plate) was 0 CFU in each case. The “Colonies on agar plates” value in assay [3] (80 U/plate), in assay [3] (150 U/plate) and in assay [3] (300 U/plate) was 0 CFU in each case. The “recovery of the applied colony forming units” value in assay [3] (highest tested concentration of 300 U/plate, not irradiated medium) came to 0%.
